Results from publication PMC10725492 (Translational Psychiatry, 2023).
No end group written: not given here. *: point of attachment. Palmitoyl = CCCCCCCCCCCCCCCC(=O)*

Target: T1, recombinant APP N-terminal (18-612) fragment (UniProt P05067-4 18-612)
T1 construct: also called APP18-612; N-terminal APP; source: expressed by KMD Bioscience
Experiment: SPR
Conditions: both partners purified

T1 sequence (P05067 other isoform, or with tags, fused parts or gaps): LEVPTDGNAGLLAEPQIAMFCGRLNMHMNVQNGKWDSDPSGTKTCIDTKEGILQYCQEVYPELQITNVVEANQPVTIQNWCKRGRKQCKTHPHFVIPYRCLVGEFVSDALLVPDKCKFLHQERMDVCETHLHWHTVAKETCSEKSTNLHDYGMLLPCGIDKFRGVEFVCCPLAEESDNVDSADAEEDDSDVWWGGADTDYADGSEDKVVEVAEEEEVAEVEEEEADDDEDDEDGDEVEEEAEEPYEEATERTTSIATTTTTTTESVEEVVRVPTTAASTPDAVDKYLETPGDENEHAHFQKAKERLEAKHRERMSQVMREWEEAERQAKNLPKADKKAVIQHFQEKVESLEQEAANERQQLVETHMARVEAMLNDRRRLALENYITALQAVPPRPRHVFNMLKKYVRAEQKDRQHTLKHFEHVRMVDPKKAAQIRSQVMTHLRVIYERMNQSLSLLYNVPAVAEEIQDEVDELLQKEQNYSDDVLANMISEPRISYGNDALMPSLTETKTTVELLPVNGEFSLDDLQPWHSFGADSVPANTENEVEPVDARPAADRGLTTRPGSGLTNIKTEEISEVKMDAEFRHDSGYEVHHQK

Binder: KKKKKKLKVRLASHLRK(Palmitoyl)ELRKRLLRDA (not fully specified) [AY51 peptide]
- Kd: 554 nM
